From the supplement of paper PMC9170038

System: MS2 coat protein
Assay: apparent KD of MS2 coat protein; designed switch direction (-1 OFF switch, 1 ON switch): -1; higher = weaker reporter binding
Procedure, shortened: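 For each design, the apparent KD is the median over clusters of curves fitted to normalised cluster fluorescence. Clusters held RNA switches with common flanks, transcribed on Illumina chips by stalled E. coli RNA polymerase. These were titrated with SNAP-549-labelled MS2 coat protein, doubling from 0.7 or 1.5 nM to 3 µM, without input, with 200 uM small-molecule ligand, or with an oligonucleotide input.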

[1] = Eterna round: R95, input ligand: microRNA oligo, concentration not stated
[2] = input ligand: microRNA oligo, concentration not stated
[3] = Eterna round: R95, input ligand: FMN 200 uM
[4] = Eterna round: R95, input ligand: none

Sequence: GUGUGACAUGAGGAUCACCCAUGUGAGGAUAUUUAUGUUUGGUUGUUUAGUUGGGCGUGGAGAAGGCGCGUGCG [19% As] (Eterna round: R97, puzzle: Exclusion 1)
- apparent KD of MS2 coat protein (input ligand: FMN 200 uM): 65.6 nM
- apparent KD of MS2 coat protein (input ligand: none): 85.1 nM

Sequence: GUGUUGUCAGGAUAUCUUACAUAACAAUCGUUGUUACCAUUGGAGAAGGGACAUGAGGAUCACCCAUGUUAACC [tap-tap-tappy46] (Eterna round: R97, puzzle: Exclusion 4)
- apparent KD of MS2 coat protein (input ligand: FMN 200 uM): 18.9 nM
- apparent KD of MS2 coat protein (input ligand: none): 19.6 nM

Sequence: GUUAAACAUGAGGAUCACCCAUGUAAGGAUAUGCUGCGGUCGAGAUGAAGUGAAUGCAGCAGAAGGUACAAUUG [Mat - Mod of JL D53] (puzzle: Exclusion 1)
- apparent KD of MS2 coat protein [1]: 148 nM

Sequence: GUUAACGAUGAGGAUAUAUGAUAUCAAAGCAUCAUAGAAGGCAUCACAUGAGGAUCACCCAUGUGAUCUUCUUG [Mat - Exclusion 6 - JL Mod - D27] (Eterna round: R97, puzzle: Exclusion 6)
- apparent KD of MS2 coat protein (input ligand: FMN 200 uM): 120 nM
- apparent KD of MS2 coat protein (input ligand: none): 29.4 nM

Sequence: GUUAACGUAGGAUAUUAGUACAUGAACAUGAGGAUCACCCAUGUGAGGUGGGUCUAAGAAUAAGAAGGGCGAAGAA [EX5 #26] (Eterna round: R97, puzzle: Exclusion 5)
- apparent KD of MS2 coat protein (input ligand: FMN 200 uM): 317 nM
- apparent KD of MS2 coat protein (input ligand: none): 312 nM

Sequence: GUUACACAUGAGGAUCACCCAUGUAAGGAUAUGCUGCGGUCGCGCUGACGUGACUGCAGCAGAAGGUACAAAUG [Mat - Mod of JL D56] (puzzle: Exclusion 1)
- apparent KD of MS2 coat protein [1]: 59.3 nM

Sequence: GUUAUGUCAGGAUAUGCUAAUGAUGAGUGCUCAGACAUGAUGCAGAAGGGACAUGAGGAUCACCCAUGUACUAA [EX4 #11] (Eterna round: R97, puzzle: Exclusion 4)
- apparent KD of MS2 coat protein (input ligand: FMN 200 uM): 116 nM
- apparent KD of MS2 coat protein (input ligand: none): 36.1 nM

Sequence: GUUCUUCCUGUAAGGAUAUCCAUGUGUCGGUUUAUGGAGAAGGUACAUGAGGAUCACCCAUGUCACCCGCGUUA (Eterna round: R97, puzzle: Brourd's mod of Exclusion 4)
- apparent KD of MS2 coat protein (input ligand: FMN 200 uM): 45.9 nM
- apparent KD of MS2 coat protein (input ligand: none): 18.5 nM

Sequence: GUUGCGUUUGUGAGGAUAUGCUGGUCCUUGGUUCGGCAGAAGGCACAUGAGGAUCACCCAUGUGGUGUCGUUCC [salish99_Bmod_ex4_051] (puzzle: Brourd's mod of Exclusion 4)
- apparent KD of MS2 coat protein [1]: 13.3 nM

Sequence: GUUGCGUUUGUGAGGAUAUGCUGGUCCUUGGUUCGGCAGAAGGCACAUGAGGAUCACCCAUGUGGUGUUGUUCC [salish99_Bmod_ex4_052] (puzzle: Brourd's mod of Exclusion 4)
- apparent KD of MS2 coat protein [1]: 90.5 nM

Sequence: GUUGUGUAAGGAUAUGCCUGGCCGUGAGGCCAGAUUGAGUGGCAGAAGGUACAUGAGGAUCACCCAUGUACGGG [salish99_ex4_4_003] (Eterna round: R97, puzzle: Exclusion 4)
- apparent KD of MS2 coat protein (input ligand: FMN 200 uM): 145 nM
- apparent KD of MS2 coat protein (input ligand: none): 26.8 nM

Sequence: GUUGUUUAUGUAGGAUAUGCAAGGCGAGCCUAAGCAGAAGGACAUGAGGAUCACCCAUGUAUUGCGGUCUGCGUUCAGAUCGCU [salish99_ExNG1_r4_015] (Eterna round: R96, puzzle: Exclusion NG 1)
- apparent KD of MS2 coat protein (input ligand: FMN 200 uM): 164 nM
- apparent KD of MS2 coat protein [2]: 17.3 nM
- apparent KD of MS2 coat protein (input ligand: none): 25.9 nM

Sequence: GUUGUUUAUGUAGGAUAUGCCUGGCGUGCCUUUGCAGAAGGACAUGAGGAUCACCCAUGUAACAUGAGGCUCACCCAUGUCGCG [salish99_ExNG1_r04_109] (Eterna round: R96, puzzle: Exclusion NG 1)
- apparent KD of MS2 coat protein (input ligand: FMN 200 uM): 438 nM
- apparent KD of MS2 coat protein [2]: 185 nM
- apparent KD of MS2 coat protein (input ligand: none): 277 nM

Sequence: GUUUCACAUGAGGAUCACCCAUGUGAGGAUAUAGAUUUGUUAGUCGUAAUUGAUAGAUUUAGAAGGCGCGUGAU [JR_Exc1_Sub002] (Eterna round: R97, puzzle: Exclusion 1)
- apparent KD of MS2 coat protein (input ligand: FMN 200 uM): 27.4 nM
- apparent KD of MS2 coat protein (input ligand: none): 25.2 nM

Sequence: UAACACCGAGGAUAUACAUUUCUCAUAAGGUGCAAAACCGCACAUGAGGAUCACCCAUGUAGAAGGCGGCAAAU [Enrabeange] (puzzle: Exclusion 2)
- apparent KD of MS2 coat protein [3]: 32 nM
- apparent KD of MS2 coat protein [1]: 10.5 nM
- apparent KD of MS2 coat protein [4]: 14.8 nM

Sequence: UAACAUGUACAAGGAUAUCAGCACGUUUAGUGCUGAGAAGGUGUAACAUGAGGAUCACCCAUGUAGAUCAUUAAUUAAUUAAUU [ENG1/9-B2] (Eterna round: R96, puzzle: Exclusion NG 1)
- apparent KD of MS2 coat protein (input ligand: FMN 200 uM): 244 nM
- apparent KD of MS2 coat protein [2]: 120 nM
- apparent KD of MS2 coat protein (input ligand: none): 102 nM

Sequence: UAAGAGUGAGGAUAUACGUCGCUGGUCUGGAUGGACGCAUGACAUGAGGAUCACCCAUGUAGAAGGCACAAAAC [Enxela Mod 11 - Jieux - Exclusion 2] (Eterna round: R97, puzzle: Exclusion 2)
- apparent KD of MS2 coat protein (input ligand: FMN 200 uM): 153 nM
- apparent KD of MS2 coat protein (input ligand: none): 35 nM

Sequence: UAAGAUUAUUGAGGAUAUGGUAAUUUUUAUUAACCAGAAGGCAAACUCAACAUGAGGAUCACCCAUGUAUAAAGGGUAUUAGUU [JR_ExcNG1_Sub096] (Eterna round: R96, puzzle: Exclusion NG 1)
- apparent KD of MS2 coat protein [2]: 51.2 nM

Sequence: UAAGGGUGCGUAGGAUAUCGCGGCCGAAUAAAGCGAGAAGGACGCCCGAAUGGGUCGUCCAACAUGAGGAUCACCCAUGUAAAC [Soerre] (Eterna round: R96, puzzle: Exclusion NG 1)
- apparent KD of MS2 coat protein (input ligand: FMN 200 uM): 140 nM
- apparent KD of MS2 coat protein [2]: 36.5 nM
- apparent KD of MS2 coat protein (input ligand: none): 50.2 nM

Sequence: UAAGUGUGAGGAUAUGGUAAAGAUAAGAUGAUGAAAGAACUCCAGAAGGCACAUGAGGAUCACCCAUGUAGAUG [JL-ex4-2.11 Jieux mod] (puzzle: Exclusion 4)
- apparent KD of MS2 coat protein [1]: 35.3 nM

Sequence: UAAUAAAGUGUGAGGAUAUGCUGGUCCAUAGAUCAGCAGAAGGCACAUGAGGAUCACCCAUGUAAUAUAUAAAU [Mat - Exclusion 4 - JL Mod - D57] (Eterna round: R96, puzzle: Brourd's mod of Exclusion 4)
- apparent KD of MS2 coat protein [2]: 23.7 nM

Sequence: UAAUAAAGUGUGAGGAUAUGCUGGUCCAUAGAUCAGCAGAAGGCACAUGAGGAUCACCCAUGUAAUAUAUAAAU [Mat - Exclusion 4 - JL Mod - D57] (puzzle: Brourd's mod of Exclusion 4)
- apparent KD of MS2 coat protein [3]: 199 nM
- apparent KD of MS2 coat protein [1]: 27.5 nM
- apparent KD of MS2 coat protein [4]: 24.5 nM

Sequence: UAAUAACAAGCGAGAUCCUACAUGAGGAUCACCCAUGUGCUCGUCUUAUAAAGUACUAUCACGAAAGUGAUAGUACA [Mat - Sensor v3 - turn-off var 1 - Eli Mod - D61] (puzzle: Sensor v3, turn-off variant 1)
- apparent KD of MS2 coat protein [3]: 17.1 nM
- apparent KD of MS2 coat protein [1]: 49.5 nM
- apparent KD of MS2 coat protein [4]: 19.2 nM

Sequence: UAAUAAUAGUGAGGAUAUAGUUAUUAUAAUAUACUAGAAGGUACACAUGAGGAUCACCCAUGUUUUAUAAUUUGUAAUUUAAAU [4th something] (Eterna round: R96, puzzle: Exclusion NG 1)
- apparent KD of MS2 coat protein [2]: 18.4 nM

Sequence: UAAUACAAGCAAAGAUCUUACAUGAGGAUCACCCAUGUGCUCGUCUUAUAAAGUACUAUCACGAAAGUGAUAGUACU [Mat - Sensor v3 - turn-off var 1 - Eli Mod - D94] (puzzle: Sensor v3, turn-off variant 1)
- apparent KD of MS2 coat protein [3]: 29.3 nM
- apparent KD of MS2 coat protein [1]: 202 nM
- apparent KD of MS2 coat protein [4]: 34.6 nM

Sequence: UAAUAUCUGAUUCUUGAGAUACAUGAGGAUCACCCAUGUUCACAGGAUAUUGAUUUUAAGAAAAGCAAGAAGGGUGAAUCAUUU [JR_ExcNG3_Sub041] (Eterna round: R96, puzzle: Exclusion NG 3)
- apparent KD of MS2 coat protein (input ligand: FMN 200 uM): 26.9 nM
- apparent KD of MS2 coat protein [2]: 16.5 nM
- apparent KD of MS2 coat protein (input ligand: none): 22.9 nM

Sequence: UAAUGUAUAUAGGAUAUCUAGCUGGAUACAGCUAGAGAAGGAUGUACAUGAGGAUCACCCAUGUAAAUCAGUGA [Ex6/14-B3] (Eterna round: R97, puzzle: Exclusion 6)
- apparent KD of MS2 coat protein (input ligand: FMN 200 uM): 206 nM
- apparent KD of MS2 coat protein (input ligand: none): 39.3 nM

Sequence: UAAUUCGUAGGAUAUACAAAGGGAGAAUGAUUGCGGUCCUGACAUGAGGAUCACCCAUGUAGAAGGAUGAGGGU [Eternabot (L1) Solution 41] (Eterna round: R97, puzzle: Exclusion 2)
- apparent KD of MS2 coat protein (input ligand: FMN 200 uM): 91.9 nM
- apparent KD of MS2 coat protein (input ligand: none): 88.6 nM

Sequence: UACACCACAUGAGGAUCAAACAUGAGGAUCACCCAUGUAUAACAAGCUUUUUGCUCGUCUUAUAAAUAUGUGGUGUA [Electric Eye 5 - Jieux - Sensor, turn-off variant 1] (Eterna round: R97, puzzle: Sensor, turn-off variant 1)
- apparent KD of MS2 coat protein (input ligand: FMN 200 uM): 14.2 nM
- apparent KD of MS2 coat protein (input ligand: none): 14.5 nM

Sequence: UACACGGGAGGAUAUACGUAGAUGCAGGUUCGUGUGGUGCUACAUGAGGAUCACCCAUGUAGAAGGCCCAACGU [Mod 4 R3 JL-ex2-2.29] (Eterna round: R97, puzzle: Exclusion 2)
- apparent KD of MS2 coat protein (input ligand: FMN 200 uM): 26.3 nM
- apparent KD of MS2 coat protein (input ligand: none): 23.4 nM

Sequence: UACACGGUAGGAUAUACGUAGAUGCAGGUUCGUGUGGUGCUACAUGAGGAUCACCCAUGUAGAAGGGCCAACGU [Mod 6 R3 JL-ex2-2.29 - Jieux - Exclusion 2] (Eterna round: R97, puzzle: Exclusion 2)
- apparent KD of MS2 coat protein (input ligand: FMN 200 uM): 15.1 nM
- apparent KD of MS2 coat protein (input ligand: none): 13.1 nM

Sequence: UACACUGCAUGAGGAUCAAACAUGAGGAUCACCCAUGUAUAGCAAGCUUUUUGCACGUCUUAUAAUUAUGUAGUGUA [Electric Eye 13 - Jieux - Sensor, turn-off variant 1] (Eterna round: R97, puzzle: Sensor, turn-off variant 1)
- apparent KD of MS2 coat protein (input ligand: FMN 200 uM): 15.1 nM
- apparent KD of MS2 coat protein (input ligand: none): 16.2 nM

Sequence: UACAUGAGGAUCACCCAUGUUUUGUCGUGUAUGGUAUUUAUCUAGGAUAUCAAGUUAUUUAUUUAUGAGAAGGAGAAUAUUAAU [JMF's solution 10] (Eterna round: R96, puzzle: Exclusion NG 3)
- apparent KD of MS2 coat protein (input ligand: FMN 200 uM): 40 nM
- apparent KD of MS2 coat protein [2]: 30.7 nM
- apparent KD of MS2 coat protein (input ligand: none): 37.3 nM

Sequence: UACAUGAGGAUCACCCAUGUUUUGUCGUGUAUGGUAUUUAUCUAGGAUAUCAAUCUAAUUAUUUAUGAGAAGGAGAAUAUUAAU [JMF's solution 50] (Eterna round: R96, puzzle: Exclusion NG 3)
- apparent KD of MS2 coat protein (input ligand: FMN 200 uM): 47.9 nM
- apparent KD of MS2 coat protein [2]: 31.2 nM
- apparent KD of MS2 coat protein (input ligand: none): 42.4 nM
